# The supplement of paper PMC12042874
# ± gives the uncertainty stated by the source.
# Test: amyloid nucleation score (Sup35N fusion, yeast selection) (log enrichment); library NNK1; higher = more nucleation; inactive = no reads after selection
# In short: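 Random libraries were run with three technical output replicates. In each, psi-negative yeast expressing Sup35N fused to peptides of 20 random codons were induced 24 hours with 100 μM copper sulfate and grown 7 days at 30°C on medium lacking adenine and uracil, and input and output plasmid inserts were Illumina-sequenced. The nucleation score is the DiMSum log enrichment of output over input reads, centred on the mode score of non-aggregating sequences, and sequences under 100 input reads were excluded.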
row,Substance,amyloid nucleation score
1,FSNARWASRSLKSARMACVA,0.554 ± 0.81
2,IVFRLS,0.185 ± 0.38
3,IDHNLSGLVC,0.544 ± 0.97
4,FSMGSVWTEERQLCWVPMVW,1.11 ± 0.94
5,FFSSNNRWRTLYNLHCSEFA,0.24 ± 0.56
6,FSDSKLILRRRNPW,-1.56 ± 1.4
7,HIYSF,1.26 ± 0.12
8,KVRHNVVLG,-1.19 ± 0.66
9,IAMLSCQRWMCQQTVTSKF,-1.29 ± 0.77
10,SINHNGPDQLKGVPFSCSCV,inactive
11,MCSSKPSGPLAVN,-1.02 ± 0.52
12,PGMNSRCCA,0.48 ± 0.72
13,VVVRLRFRNSIPSILSQR,-0.304 ± 0.71
14,STDVFYLV,-0.669 ± 0.39
15,FRLTGTLALKFVVELTVRR,2.79 ± 0.26
16,YSPFYYVDI,1.61 ± 0.42
17,RQSRLAYGCVLVYVLTADFG,-0.025 ± 0.29
18,SSFLFSFWGAIGSIKSTFFW,-0.054 ± 0.24
19,SGAPLDAGFNIA,0.227 ± 0.49
20,PCSFNA,-0.267 ± 0.72
21,FDQLEGLRCASSWKLLSSPG,0.062 ± 0.8
22,VKLLYVIISYVRVCCRMDQI,-0.501 ± 0.54
23,SGMRRFRWLEVFSTDQRLEA,inactive
24,GVMSTDPFLTLYTVLVGVLI,inactive
25,KPGTNSYGCVYNHGFMGCTK,-0.245 ± 0.45
26,RLSGGLADHNIFNFRIT,0.805 ± 0.76

row,Substance,amyloid nucleation score
1,SNEVYWQ,1.25 ± 0.3
2,GFNLSRTAMMICFGYFTA,6.61 ± 0.073
3,SSSRV,0.111 ± 0.42
4,SSGYGECAFVT,-0.055 ± 0.33
5,LGSILV,-0.751 ± 0.94
6,YTLMLCNVASVDSWI,5.05 ± 0.063
7,FLDLSGMPGSVWFDIGVSCF,-0.716 ± 1
8,STVLQWIIGRPLYARDSLAS,-0.561 ± 0.6
9,DRFRRTNAIGLVHMDSGKG,0.907 ± 0.39
10,LGHGLDRMKLRTECNCTVVD,-0.503 ± 0.3
11,RVSPFISNTFVVNSKETHGV,4.56 ± 0.056
12,IVSLNGPAKSSAFGKFSGPL,-0.602 ± 0.72
13,MLLPSYVEF,1.46 ± 0.34
14,FFLAV,-0.158 ± 0.64
15,FVATNPVL,0.588 ± 0.42
16,YTRMLLRGAIETGFYPNMLE,-1.2 ± 2.1
17,NSFVTVFLRWKYFVMSDMWP,-0.139 ± 0.25
18,IQWGEKNGCGHLGQFMWYDG,0.193 ± 0.58
19,KCRKASMSSPILDLCTRMRC,-1.18 ± 1.9
20,FIITWILTKNMKLGEVYSIS,-0.132 ± 0.72
21,NVYAMCTITMNYSVVVTHSC,3.35 ± 0.15
22,EVNLHLGCVWLVRLCVSDDG,2.08 ± 0.19
23,IHSAYLNAQRKVWATAKFKW,-0.639 ± 0.35
24,NIHGDGWSYVLNAIGSELD,0.154 ± 0.43
25,MRRCTGMLCYTIS,0.97 ± 0.53
26,NREIPQWIGFVY,1.12 ± 0.65

row,Substance,amyloid nucleation score
1,KFRRW,-0.832 ± 0.56
2,WSFVYMENVIARYEVSVG,0.296 ± 0.25
3,SFYVWDDSYCFVFGCTSVKC,-0.291 ± 0.47
4,LFTIMTLDCNFRLSGLSLAI,0.236 ± 0.21
5,FHQDFDSWF,0.362 ± 0.51
6,NLLTWRD,0.743 ± 0.64
7,FSVRHLSVSVLRMGTHLLDA,-0.746 ± 0.61
8,IYNRKTYFMTTSATVVFAVP,0.696 ± 0.4
9,PRRSY,1.41 ± 0.84
10,GNFMVW,-0.403 ± 0.58
11,VVAVE,-0.27 ± 0.38
12,RQLVIIFNDDLGDVGNGNFC,7.61 ± 0.043
13,WHYNMLYCLLRRSRLCWNIV,-0.403 ± 0.48
14,VRNVISNKYCRAGYLTKYLL,-0.16 ± 0.22
15,FRVSSFWYWYVHLQGYYGTV,1.01 ± 0.8
16,INRFTICTFHWTGFALNALS,2.26 ± 0.17
17,SRYRA,5.11 ± 0.076
18,SSDSVSLYYLISYTPFGRFN,inactive
19,NLSIRCLASFCPTGESWIRV,0.971 ± 0.79
20,SVSMY,0.068 ± 0.27
21,NCFRTSCKSGEWLQLFIRRG,0.275 ± 0.39
22,DVFVY,-0.273 ± 0.45
23,ILGRYNNAVLGVGSEQWSVG,0.287 ± 0.46
24,SNGHNAILVA,inactive
25,QTRVCTNDKSSFTLQTGRW,3.26 ± 0.14
26,ECRGQLSDKIVQYNRPEVYW,-0.199 ± 0.28

row,Substance,amyloid nucleation score
1,NVVYMYSSASEYVWHRRLGF,-0.993 ± 0.43
2,VLVGCLASQRVISENKGCKC,0.722 ± 0.81
3,FFELYRVLCTNAFLWCKGYV,-0.423 ± 0.44
4,FFHAIIWRLIYRQFPDFVG,0.984 ± 0.43
5,RRVGVYDGLRIFS,0.086 ± 0.93
6,THCLDCVPMNRVDNRCETFS,0.028 ± 0.36
7,GIVFIIQYS,inactive
8,DFFLIFWWDSFSAGVCQMNS,0.356 ± 0.51
9,RWGLRQIMVVENFIHRWVCP,1.04 ± 0.79
10,FIFCAGCVENNTSSPK,6.224 ± 0.059
11,VAMLQFASFQSSW,-0.323 ± 0.39
12,VTQIKPVRRLGGL,-0.692 ± 0.87
13,VRHCTQINSPFYYDFN,-0.318 ± 0.3
14,NIEVYDFYNINSMYNV,4.54 ± 0.079
15,SFFLFRENFEMSNIRFRYVN,0.995 ± 0.68
16,PNRSLCTVNMCIYVETGFMV,inactive
17,FCSNPAGWSSWSPE,0.182 ± 0.9
18,TYCNQWIGCMGYRKKHEPR,-0.077 ± 0.41
19,MYLVDASMSKPLIVLKSCN,0.686 ± 1.1
20,SFAHHAFIGFILSSWWN,-1.06 ± 2.4
21,TMAFVKLLNGSGNLEILKFS,0.785 ± 0.44
22,VCEISLN,0.016 ± 1.2
23,TCVGFSGVGKGNSSIKVKEA,0.351 ± 0.42
24,EISVWVEALFSLYFRNWISG,0.229 ± 0.84
25,TCWVGYYVCW,-0.336 ± 0.53
26,NHSLMGVSTSFWI,-0.334 ± 0.45

row,Substance,amyloid nucleation score
1,STFAALNVKSCGVCLMWLLD,0.1 ± 0.84
2,VLISENNITNHNSHECLVCY,-1.02 ± 1.7
3,KLTHVNDLLTMVVNVSRAQG,-0.004 ± 1.4
4,MTEQVAANAEDWSVVGNWLV,0.43 ± 0.5
5,YVDDFPRQSAGFIDT,2 ± 0.57
6,RRVNNKLRSTSGSTLTCCTY,0.216 ± 1.4
7,SRHVLLPISFGTV,0.377 ± 0.61
8,VLSSGESIRNTAINVEVEHQ,0.449 ± 0.38
9,ANSSF,-0.126 ± 0.54
10,LIHSRKVLSSMTYIEGPLTS,0.166 ± 0.34
11,LLGMRFSVVPSPATFGWTHF,1.81 ± 0.18
12,NLVRLVRIARCSMRSSVGTL,1.23 ± 0.16
13,VGRNNASLHSDKNRWFGFGF,1.49 ± 0.18
14,QRVSIRFSVPRGL,0.312 ± 0.31
15,YVSLLYLLWLI,-0.326 ± 0.32
16,ISEVFD,-0.237 ± 0.24
17,SLGPFRDVSCYVVAGIQTVN,-1.66 ± 2.7
18,SEAVCVRVQLAWDRLMGVRV,0.966 ± 0.64
19,NDRPMMEVGMDPTPAGVLRE,0.276 ± 0.49
20,KLHDGFL,-0.96 ± 2.7
21,FRGSRELNMSSQGVGACLIR,-0.399 ± 0.88
22,VFGAFSESLLYSR,0.51 ± 0.35
23,VGICMWHN,0.718 ± 0.21
24,RYHRWFRVRSSENRWGIC,-0.51 ± 0.93
25,NMLWSGITKFGGRGLKSMVV,-0.169 ± 0.88
26,CDRFWMELG,-0.267 ± 0.4

row,Substance,amyloid nucleation score
1,YTWGRLGSEIKPARASMHLA,1.08 ± 0.75
2,FKTTDHFVGVYCLLYAKKQG,-0.235 ± 0.77
3,KIVRSRWFIICACVKLRTRL,0.427 ± 0.36
4,GWCNMGGANVWKMQVTGPAE,0.948 ± 0.58
5,RSSNNIPGGYWEPYGQHHFH,2.44 ± 0.13
6,NQDFLTLALKWRCECFHTKL,-0.247 ± 1.9
7,YFGMSY,-1.38 ± 0.66
8,ININGNVY,0.849 ± 1.1
9,PEAPPLLIVSGFN,1.2 ± 0.79
10,PSVTVYIYNLSSIFYGIRDL,6.71 ± 0.075
11,LSSTLCSIVF,0.051 ± 0.57
12,YDNRSALDWCLGEVMFAST,-0.993 ± 0.35
13,RNIPGFVETVINGSCGALLT,0.636 ± 0.52
14,RCSFFSYCVNDAS,3.55 ± 0.12
15,GYKGQCIIYSTVDSRN,0.07 ± 0.35
16,VSDHT,1.02 ± 0.47
17,KIATKGNIF,-0.951 ± 0.53
18,LQRLY,-0.251 ± 0.35
19,NFCFTVFLEVNAVKMRIYF,-0.798 ± 1.1
20,AYINLTPHGPRVCRFNWLAS,-0.094 ± 0.7
21,FVECSERRGSKGSLYIDEVS,-0.629 ± 0.73
22,GHVRFSMHRRSDVCKQGSND,0.91 ± 0.47
23,GYFDMFTKIVVL,0.856 ± 0.45
24,NNVRYT,inactive
25,AFPTIAYMIWVFVDVQLCSE,1.25 ± 0.58
26,ANELFTVDKKSVGYIPTHTL,0.445 ± 0.56

row,Substance,amyloid nucleation score
1,HSSNAAFCYAVTIYLQVLLV,0.837 ± 0.66
2,LTRVWSVTCVCSFGRPYK,2.13 ± 0.27
3,YISFHTTSYRFRLYRLL,0.894 ± 0.17
4,VVASSCSFNRRLESSAGYL,0.744 ± 0.37
5,FEYCCFSYEIVLELARFRGF,-0.535 ± 1.7
6,MFTYDGRVEWVLA,-0.133 ± 0.45
7,CRQVFLFLVVPKYYNRMLST,-0.251 ± 0.31
8,GSGINVRDITFIL,4.42 ± 0.071
9,MFLNII,-0.112 ± 0.74
10,VRLNNCNLFFCYMTRIAFAE,4.96 ± 0.067
11,YQVYWSVSG,-0.021 ± 0.51
12,QGGRVDGSPPTVYA,0.555 ± 0.46
13,NGLWVGHLVLDGIYSA,-0.564 ± 0.33
14,KIPKSVYVLTSIEGSAFNIK,-0.234 ± 1.6
15,NLDKNGYRTCNLKISYHMSR,1.28 ± 0.32
16,MHHCSFSSLDFTVHK,-1.02 ± 2.4
17,CYHSKFAVAYQSRICWPWRD,1.26 ± 0.67
18,IRDDCTYYVSAE,0.634 ± 0.23
19,ASWFLVISTSLVYHSATADR,0.211 ± 0.39
20,AGFVYFPMYNKLMELFTRGI,1.29 ± 0.66
